Positions count from the first letter of the chain named. In names and notes the source's numbering stands.
T1: 14-3-3, P63104
T1 chain: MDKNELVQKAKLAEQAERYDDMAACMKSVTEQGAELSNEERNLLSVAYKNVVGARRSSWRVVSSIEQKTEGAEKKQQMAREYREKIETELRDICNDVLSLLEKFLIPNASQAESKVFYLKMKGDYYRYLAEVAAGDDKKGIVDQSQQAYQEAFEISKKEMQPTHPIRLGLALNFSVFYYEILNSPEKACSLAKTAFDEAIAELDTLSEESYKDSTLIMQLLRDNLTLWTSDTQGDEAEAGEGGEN

B1: GST-BAD wild type, full length (pEBG-BAD), Q61337 S111A; S112A (protein)
chain: MGTPKQPSLAPAHALGLRKSDPGIRSLGSDAGGRRWRPAAQSMFQIPEFEPSEQEDASATDRGLGPSLTEDQPGPYLAPGLLGSNIHQQGRAATNSHHGGAGAMETRSRHAAYPAGTEEDEGMEEELSPFRGRSRSAPPNLWAAQRYGRELRRMSDEFEGSFKGLPRPKSAGTATQMRQSAGWTRIIQSWWDRNLGKGGSTPSQ
B2: GST-BAD wild type, full length (pEBG-BAD), Q61337 S136A (protein)
chain: B1 chain with A111S, A112S, S136A
B3: GST-BAD wild type, full length (pEBG-BAD), Q61337 S112A (protein)
chain: B1 chain with A111S
B4: GST-BAD wild type, full length (pEBG-BAD), Q61337 S112A; S136A (protein)
chain: B1 chain with A111S, S136A
B5: GST-BAD wild type, full length (pEBG-BAD), Q61337 S111A; S136A (protein)
chain: B1 chain with A112S, S136A
B6: GST-BAD wild type, full length (pEBG-BAD), Q61337 S111A; S112A; S136A (protein)
chain: B1 chain with S136A
B7: GST-BAD wild type, full length (pEBG-BAD), Q61337 S111A (protein)
chain: B1 chain with A112S

Target: T1, 14-3-3, P63104
Assay: GST pull-down, Western blot densitometry
Details: chain shown with the change; 293T cell extracts, glutathione beads; two blots quantified; parent: est. 1.5; read off a plot

Binder | response (IB:14-3-3/total 14-3-3)
B1 | 1.9
B2 | 0.17
B3 | 1.8
B4 | 0.19
B5 | 0.2
B6 | 0.22
B7 | 1.7

Reference: PMC3214075
